Results as given in the supplement of paper PMC6755084.

B1: F1*; the commonest letter at each place (parent)
chain: GAGACCGCAACTGAAAAGTTGTTATCACTTGTCGTAAGACACTTTGGATGGGTTGAAGTTCTGCACGTAGAAGCAAAAGGC

Variants of: B1
Assay: fraction ligated after 30 min (ligated reads / total reads); higher = more ligase activity
Conditions: with F1*sub RNA substrate (template-directed ligation), 42 °C
Procedure: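 Chip-synthesised pool of F1* ligase ribozyme variants (all single and double substitutions, single, double and triple deletions in the catalytic core and GAA bulge, plus designed variants) was transcribed with T7 and reacted as a pool with excess substrate F1*sub for 30 min at 42 C in 50 mM EPPS pH 8.5, 25 mM MgCl2. Ligated and unligated bands were separated by PAGE, barcoded by RT and deep sequenced; fraction ligated = ligated reads / total reads per variant, relative activity = FL / FL of wild type (0.826). Sequences are the DNA template of the ribozyme.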

Row | Variant | fraction ligated
1 | C28T T30C | 0.805
2 | C28T T30A | 0.814
3 | C28T T30G | 0.791
4 | A27T G46T | 0.757
5 | A27T G46A | 0.817
6 | A27T G46C | 0.796
7 | A27T G47C | 0.0127
8 | A27T G47T | 0.0847
9 | A27T G47A | 0.801
10 | C28T T49A | 0.743
11 | C28T T49G | 0.811
12 | C28T T49C | 0.749
13 | C28A C40A | 0.809
14 | C28A C40G | 0.824
15 | C28A C40T | 0.773
16 | A27T T44A | 0.825
17 | A27T T44C | 0.775
18 | A27T T44G | 0.846
19 | T29A C42G | 0.867
20 | T29A C42T | 0.826
21 | T29A C42A | 0.86
22 | C28G C42T | 0.815
23 | C28G C42G | 0.851
24 | C28G C42A | 0.824

Row | Variant | fraction ligated
25 | C28T G46C | 0.8
26 | C28T G46T | 0.788
27 | C28T G46A | 0.802
28 | C28G A56G | 0.722
29 | C28G A56T | 0.767
30 | C28G A56C | 0.7
31 | C28A T43G | 0.812
32 | C28A T43C | 0.795
33 | C28A T43A | 0.799
34 | C28G T30G | 0.788
35 | C28G T30A | 0.802
36 | C28G T30C | 0.794
37 | C28G G46T | 0.771
38 | C28G G46A | 0.811
39 | C28G G46C | 0.792
40 | C28G A48T | 0.47
41 | C28G A48G | 0.751
42 | C28G A48C | 0.405
43 | C28A A37G | 0.793
44 | C28A A37C | 0.779
45 | C28A A37T | 0.801
46 | C28G A57C | 0.77
47 | C28G A57G | 0.791
48 | C28G A57T | 0.79

Row | Variant | fraction ligated
49 | C28T G38A | 0.811
50 | C28T G38T | 0.795
51 | C28T G38C | 0.799
52 | C28G G38C | 0.778
53 | C28G G38A | 0.792
54 | C28G G38T | 0.772
55 | C28A T49A | 0.679
56 | C28A T49C | 0.605
57 | C28A T49G | 0.724
58 | C28T T43A | 0.803
59 | C28T T43C | 0.781
60 | C28T T43G | 0.8
61 | A27T A48C | 0.729
62 | A27T A48T | 0.787
63 | A27T A48G | 0.794
64 | A27T T49C | 0.512
65 | A27T T49A | 0.76
66 | A27T T49G | 0.287
67 | C28G G34C | 0.768
68 | C28G G34A | 0.794
69 | C28G G34T | 0.798
70 | C28A G50A | 0.154
71 | C28A G50C | 0.163
72 | C28A G50T | 0.517

Row | Variant | fraction ligated
73 | A27T C33T | 0.867
74 | A27T C33A | 0.84
75 | A27T C33G | 0.838
76 | T29A A39G | 0.845
77 | T29A A39T | 0.831
78 | T29A A39C | 0.82
79 | C28T C42G | 0.813
80 | C28T C42T | 0.819
81 | C28T C42A | 0.805
82 | C28G A41G | 0.744
83 | C28G A41T | 0.801
84 | C28G A41C | 0.751
85 | C28G T49C | 0.674
86 | C28G T49G | 0.763
87 | C28G T49A | 0.656
88 | C28G A37G | 0.809
89 | C28G A37T | 0.808
90 | C28G A37C | 0.766
91 | C28T T32A | 0.822
92 | C28T T32G | 0.8
93 | C28T T32C | 0.753
94 | C28T A57G | 0.798
95 | C28T A57T | 0.817
96 | C28T A57C | 0.744

Row | Variant | fraction ligated
97 | C28T G50T | 0.747
98 | C28T G50A | 0.352
99 | C28T G50C | 0.323
100 | A27T T29G | 0.805
101 | A27T T29A | 0.803
102 | A27T T29C | 0.807
103 | T29A | 0.848
104 | T29A C33T | 0.859
105 | T29A C33A | 0.852
106 | T29A C33G | 0.868
107 | C28A A39T | 0.794
108 | C28A A39C | 0.802
109 | C28A A39G | 0.798
110 | T29A A37C | 0.849
111 | T29A A37G | 0.839
112 | T29A A37T | 0.848
113 | C28G A36T | 0.788
114 | C28G A36C | 0.759
115 | C28G A36G | 0.812
116 | C28T G55T | 0.765
117 | C28T G55C | 0.221
118 | C28T G55A | 0.801
119 | C28G T45A | 0.558
120 | C28G T45G | 0.259

Row | Variant | fraction ligated
121 | C28G T45C | 0.337
122 | C28G C33G | 0.505
123 | C28G C33T | 0.786
124 | C28G C33A | 0.757
125 | C28T A36T | 0.799
126 | C28T A36C | 0.801
127 | C28T A36G | 0.81
128 | A27T G50C | 0.238
129 | A27T G50T | 0.616
130 | A27T G50A | 0.412
131 | C28T A41T | 0.806
132 | C28T A41G | 0.789
133 | C28T A41C | 0.792
134 | A27T G38T | 0.799
135 | A27T G38C | 0.784
136 | A27T G38A | 0.811
137 | C28A T45G | 0.0334
138 | C28A T45C | 0.499
139 | C28A T45A | 0.698
140 | C28A G47A | 0.75
141 | C28A G47C | 0.302
142 | C28A G47T | 0.361
143 | C28A G55C | 0.19
144 | C28A G55T | 0.8

Row | Variant | fraction ligated
145 | C28A G55A | 0.793
146 | C28A T44G | 0.798
147 | C28A T44A | 0.834
148 | C28A T44C | 0.802
149 | C28A A41T | 0.827
150 | C28A A41C | 0.794
151 | C28A A41G | 0.779
152 | C28T G47C | 0.252
153 | C28T G47T | 0.3
154 | C28T G47A | 0.787
155 | T29A A36T | 0.847
156 | T29A A36C | 0.855
157 | T29A A36G | 0.853
158 | C28T A48C | 0.606
159 | C28T A48G | 0.788
160 | C28T A48T | 0.709
161 | C28T C40A | 0.824
162 | C28T C40T | 0.796
163 | C28T C40G | 0.81
164 | A27T C28A | 0.829
165 | A27T C28T | 0.798
166 | A27T C28G | 0.802
167 | C28A T29G | 0.814
